In assay [1] the target is T1, soluble recombinant human VEGFR-1 alkaline phosphatase (human, UniProt P17948 27-758).
T1 construct: Made in house in stably transfected cells; also called rhuVEGFR-I AP; VEGFR-I AP; not shown: alkaline phosphatase fusion partner
Put plainly: blocking ELISA: antibody preincubated with VEGFR-1 AP, binding to PlGF coated plate. On the procedure:
Specifically, hybridoma supernatants or purified antibodies were diluted in PBS with 5% FBS and 0.05% Tween 20 (ELISA buffer) and incubated in rhuVEGFR-I AP or AP coated 96-well microtiter plates for 30 minutes. Plates were washed with the ELISA buffer and incubated with goat anti-mouse IgG-horseradish peroxidase (HRP) conjugate (BioSource International, Camarillo, Calif.) for 30 minutes. TMB (3,3′,5,5′-tetra-methylbenzidine) substrate (Kierkegaard and Perry Lab, Inc., Gaithersburg, Md.) was used for color development following the manufacturer's instruction. The absorbance at 450 nanometers (nm) was read for quantification of binding activity of antibodies. For identification of the hybridomas producing anti-VEGFR-I antibodies, hybridoma supernatants were preincubated with VEGFR-I AP for 1 hour. The mixtures were incubated with the ELISA buffer in VEGF or P1GF coated 96-well microtiter plates for 1 hour. PNPP (p-nitrophenyl phosphate) substrate for AP was used for color development following the manufacturer's instruction. The absorbance at 405 nm was read for quantification of VEGFR-I binding to VEGF or P1GF. Optical density (OD) values were read on a microtiter plate reader (Molecular Devices Corp., Sunnyvale, Calif.). ED50 and IC50 of the antibodies were analyzed using GraphPad Prism 3 software (GraphPad Software, Inc., San Diego, Calif.).
(In general: An ELISA detects its analyte on a solid surface through an enzyme-linked reagent.)

The target in assay [2] is T2, recombinant human VEGFR-1 Fc (human, UniProt P17948-2 27-687, limits assumed).
T2 construct: Bought from R&D Systems; also called rhuVEGFR-1 Fc; HuVEGFR-I-Fc; not shown: Fc part
The assay can be described thus: ELISA: antibody dilutions on plate coated with 1 µg/ml human VEGFR-1 Fc, HRP secondary, O.D. 450. On the procedure:
(§1) To determine the specificity of an anti-VEGFR-1 monoclonal antibody to human VEGFR-I, purified antibodies 18F1 were tested in an ELISA-based assay. One μg/ml of recombinant human VEGFR-I Fc, mouse VEGFR-I Fc, mouse VEGFR-2 Fc, or human VEGFR-2 alkaline phosphatase was coated with PBS in a 96-well microtiter plates at 4° C. over night. After wash, the receptor coated plates were blocked with PBS containing 5% Dry Milk and 0.05% Tween 20. Serial dilutions of primary antibody 18F1 to human VEGFR-I, MF1 to mouse VEGFR-I, IC1 1 to human VEGFR-2, or DClOl to mouse VEGFR-2 were incubated in the receptor-coated plates for 30 minutes. After wash secondary anti-primary HRP conjugate antibodies was incubated in the plates for 30 minutes. Plates were washed and incubated with the substrate TMB (3,3′,5,5′-tetra-methylbenzidine) for color development. The absorbance at 450 nm was read as OD values for quantification of binding activity of antibodies. Data were analyzed using a GraphPad Prism Software.

Assay [3] concerns the target T2, recombinant human VEGFR-1 Fc. Put plainly: ELISA: plate coated with HuVEGFR-1-Fc 100 ng/well, goat anti-human kappa-HRP, O.D. 450. On the procedure: TMB (3,3′,5,5′-tetra-methylbenzidine) substrate (Kierkegaard and Perry Lab, Inc., Gaithersburg, Md.) was used for color development following the manufacturer's instruction. The absorbance at 450 nanometers (nm) was read for quantification of binding activity of antibodies. For identification of the hybridomas producing anti-VEGFR-I antibodies, hybridoma supernatants were preincubated with VEGFR-I AP for 1 hour. […] PNPP (p-nitrophenyl phosphate) substrate for AP was used for color development following the manufacturer's instruction. The absorbance at 405 nm was read for quantification of VEGFR-I binding to VEGF or P1GF. Optical density (OD) values were read on a microtiter plate reader (Molecular Devices Corp., Sunnyvale, Calif.). ED50 and IC50 of the antibodies were analyzed using GraphPad Prism 3 software (GraphPad Software, Inc., San Diego, Calif.).
HuVEGFR-I-Fc, mouse VEGFR-I-AP (hnClone Systems) or huVEGFR-2-AP (ImClone Systems) (100 ng/well) was coated on 96 strip-well plates and blocked with 5% milk/PBS. […]

The target of assay [4] is T3, mouse VEGFR-1 Fc (mouse, UniProt P35969 23-759, limits assumed).
T3 construct: not shown: Fc part; not described
T3 sequence (looked up): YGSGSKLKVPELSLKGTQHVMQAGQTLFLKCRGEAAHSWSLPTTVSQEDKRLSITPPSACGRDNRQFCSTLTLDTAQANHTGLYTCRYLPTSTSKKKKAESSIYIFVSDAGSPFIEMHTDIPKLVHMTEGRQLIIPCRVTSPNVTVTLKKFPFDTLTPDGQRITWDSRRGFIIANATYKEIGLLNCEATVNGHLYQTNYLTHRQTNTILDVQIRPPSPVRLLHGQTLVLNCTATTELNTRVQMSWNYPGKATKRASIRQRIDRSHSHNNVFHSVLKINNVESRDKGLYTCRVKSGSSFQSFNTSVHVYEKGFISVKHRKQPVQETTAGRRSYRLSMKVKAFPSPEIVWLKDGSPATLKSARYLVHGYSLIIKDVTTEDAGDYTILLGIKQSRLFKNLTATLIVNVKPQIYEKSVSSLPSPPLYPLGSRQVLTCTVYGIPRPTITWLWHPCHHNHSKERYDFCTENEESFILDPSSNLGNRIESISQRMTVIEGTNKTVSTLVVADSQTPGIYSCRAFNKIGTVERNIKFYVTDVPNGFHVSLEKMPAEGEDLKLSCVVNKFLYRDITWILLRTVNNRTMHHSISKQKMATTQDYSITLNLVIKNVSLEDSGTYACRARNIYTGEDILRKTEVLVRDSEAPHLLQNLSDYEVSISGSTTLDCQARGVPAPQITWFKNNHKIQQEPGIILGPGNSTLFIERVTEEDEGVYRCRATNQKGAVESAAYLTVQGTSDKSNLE
The assay can be described thus: ELISA: antibody dilutions on plate coated with 1 µg/ml mouse VEGFR-1 Fc, HRP secondary, O.D. 450. As for the experimental part: as §1

A word on the IC50: it is the concentration that gives 50% inhibition. In general, EC50 (read off the curve) refers to the midpoint of the concentration-response curve.

T2 sequence (P17948 other isoform, or with tags, fused parts or gaps limits assumed): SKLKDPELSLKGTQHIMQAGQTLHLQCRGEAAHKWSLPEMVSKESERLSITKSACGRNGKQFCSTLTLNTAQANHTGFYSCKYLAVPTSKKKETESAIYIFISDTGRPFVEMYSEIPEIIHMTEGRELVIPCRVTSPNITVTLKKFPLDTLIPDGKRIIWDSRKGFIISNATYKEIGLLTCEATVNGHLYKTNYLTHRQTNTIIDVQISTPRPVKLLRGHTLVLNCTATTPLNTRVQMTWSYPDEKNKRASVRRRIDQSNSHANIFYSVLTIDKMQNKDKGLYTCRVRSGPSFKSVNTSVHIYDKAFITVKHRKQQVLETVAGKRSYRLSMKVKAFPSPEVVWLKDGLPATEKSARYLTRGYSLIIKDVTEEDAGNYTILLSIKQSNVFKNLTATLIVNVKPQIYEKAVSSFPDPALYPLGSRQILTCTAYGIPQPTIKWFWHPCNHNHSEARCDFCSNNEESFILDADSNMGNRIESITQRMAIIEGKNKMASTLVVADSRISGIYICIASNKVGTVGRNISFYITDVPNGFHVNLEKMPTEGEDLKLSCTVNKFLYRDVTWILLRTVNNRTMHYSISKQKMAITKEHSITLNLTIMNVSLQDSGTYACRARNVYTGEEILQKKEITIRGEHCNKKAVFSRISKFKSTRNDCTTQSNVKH
T1 sequence (P17948 27-758): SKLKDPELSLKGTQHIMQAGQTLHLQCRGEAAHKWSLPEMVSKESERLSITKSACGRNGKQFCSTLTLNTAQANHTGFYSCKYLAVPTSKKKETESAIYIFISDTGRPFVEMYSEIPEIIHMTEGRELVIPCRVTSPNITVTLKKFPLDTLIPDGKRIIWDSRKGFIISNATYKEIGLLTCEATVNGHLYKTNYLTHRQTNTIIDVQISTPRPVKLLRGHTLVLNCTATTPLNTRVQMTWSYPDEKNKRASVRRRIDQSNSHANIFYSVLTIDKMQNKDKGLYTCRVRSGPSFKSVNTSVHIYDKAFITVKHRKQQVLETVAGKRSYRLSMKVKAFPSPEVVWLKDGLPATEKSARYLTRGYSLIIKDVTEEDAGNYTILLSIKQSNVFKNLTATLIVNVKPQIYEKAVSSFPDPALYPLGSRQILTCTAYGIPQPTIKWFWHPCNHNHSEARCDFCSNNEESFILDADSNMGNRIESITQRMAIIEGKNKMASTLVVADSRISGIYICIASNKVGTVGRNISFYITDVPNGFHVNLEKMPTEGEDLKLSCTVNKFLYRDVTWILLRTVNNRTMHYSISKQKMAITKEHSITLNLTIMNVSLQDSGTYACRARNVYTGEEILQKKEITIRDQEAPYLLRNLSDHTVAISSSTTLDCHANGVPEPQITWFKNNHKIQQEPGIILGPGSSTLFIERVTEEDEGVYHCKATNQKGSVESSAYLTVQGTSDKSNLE

B1: anti-human VEGFR-1 antibody 18F1 (antibody, V domains shown)
VH: QAQVVESGGGVVQSGRSLRLSCAASGFAFSSYGMHWVRQAPGKGLEWVAVIWYDGSNKYYADSVRGRFTISRDNSENTLYLQMNSLRAEDTAVYYCARDHYGSGVHHYFYYGLDVWGQGTTVTVSS
VL: not shown
notes: Fully human antibody (gamma heavy chain, kappa light chain) from hybridomas of KM transgenic mice, purified; The light chain entry runs a few residues into the kappa constant region; also called MC-18F1; IMC-18F1
On to B1, for which, in assay [1], the IC50 is 550 pM. For the same molecule, the “EC50 (read off the curve)” value in assay [2] and in assay [3] was around 3 ng/mL throughout. For the same molecule, the binding result in assay [4] is given as “no binding (tested: 1 µg/ml)”.

Values taken from patent publication US20100028347A1 (Eli Lilly, published 2010).
